The target in the experiment is T1, JUNV GPC MC2-TS (wild-type Junin virus glycoprotein complex) (Junin virus, MC2 strain, UniProt P26313, myristoyl on G2 | N-linked glycans | N-linked glycans).
T1 construct: copies: 3 + 3 + 3
Description: flow cytometry on cells. Particulars: one partner purified.

This note sets out measurements from publication PMC12408356 (Nature Microbiology, 2025).

T1 sequence (P26313 2-58, chain 1 of 3): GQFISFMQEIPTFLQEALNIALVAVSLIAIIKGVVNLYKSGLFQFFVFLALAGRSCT
T1 sequence (P26313 59-251, chain 2 of 3): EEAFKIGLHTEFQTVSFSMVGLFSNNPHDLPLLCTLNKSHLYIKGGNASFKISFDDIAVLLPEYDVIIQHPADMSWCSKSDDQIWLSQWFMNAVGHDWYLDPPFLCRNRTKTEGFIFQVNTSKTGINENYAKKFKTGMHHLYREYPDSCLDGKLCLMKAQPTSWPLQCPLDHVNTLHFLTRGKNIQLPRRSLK
T1 sequence (P26313 252-485, chain 3 of 3): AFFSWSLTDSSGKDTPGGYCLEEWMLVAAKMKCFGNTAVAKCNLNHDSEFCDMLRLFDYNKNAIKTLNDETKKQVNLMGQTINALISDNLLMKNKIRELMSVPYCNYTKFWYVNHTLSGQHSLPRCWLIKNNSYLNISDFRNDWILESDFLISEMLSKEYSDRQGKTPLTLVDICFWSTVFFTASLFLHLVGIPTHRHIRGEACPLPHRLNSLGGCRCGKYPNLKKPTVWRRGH

B1: CR1-28 (antibody, V domains shown)
VH: QVQLVESGGGVVQPGRSLRLSCAASGFTFSSSAMHWVRQAPGKGLEWVAVIWSDGSNENYADSVKGRFTISRDNSKNTLYLQMSSLRAEDTAVYYCATDKTYVSGYTSTWYYFNYWGQGTLVTVS
VL: DIQMTQSPSTLSASVGDRVTITCRASQSIDNWLAWYQQKPGKAPKLLIYTASRLESGVPSRFSGSGSGTEFTLTISSLQPDDFATYYCQHRTFGQGTKVEIK
For B1, the binding result is “binds”.

B2: CR1-10 (antibody, V domains shown)
VH: QVQLQESGPGLVKPSQTLSLTCSVSGGSIGGSSYYWSWIRHHPGKGLEWIGYINYRGITHYNAALKSRVSMSVETSQNHFSLQLTSVTAADTAVYYCARLTSDCSGGNCYQAFDYWGQGSLVSVS
VL: EIVLTQSPGTLSLSPGETATLSCRASQSVSSSYLAWYQQKPGQAPRLLIYGASGRATGIPDRFSGSGSGTDFTLTISRLEPEDFAVYYCQQYGRSGYTFGQGTKLEIK
B2: the binding result was “binds”.

B3: CR1-07 (antibody, V domains shown)
VH: QVQLVESGGGVVHPGRSLRLSCAASGFTFGTSIMHWVRQAPGKGMQWVAQISHDESRKFYSDSVKGRFTVSRDNSKNTLFLEMSSLRIEDTAVYYCAKDLSPPYSYAWDIFQYWGQGSLVTVS
VL: DIVMTQSPESLAVSLGERATINCKSSQSVLYSSRSDNKDYLAWYQQKPGQSPKLLIYWASTRESGVPERFTGSGSGTDFTLSISSLQAEDVAVYYCQQYYSSPPTFGGGTKVELK
Consider B3, for which the binding result was “binds”.
